Assay results as given in publication PMC10718073 (Chemical Science, 2023).

How the values were obtained:
Test in all cases: native MS
[1] = target: AmtB from Escherichia coli (Escherichia coli) (UniProt P69681)
[2] = target: AqpZ with C-terminal fusion to the green fluorescent protein (Escherichia coli) (UniProt P60844)
[3] = target: the molecule itself
[4] = target: the molecule itself; remark: listed apart in the source

Work on “AmtB from Escherichia coli (from UniProt P69681 23-428) (natural protein)” yielded a stoichiometry N [1] of 3.

“AqpZ with C-terminal fusion to the green fluorescent protein (from UniProt P60844 1-231) (natural protein)” showed a stoichiometry N [2] of 4.

B1: TREK2, residues 55-335 with T58A (domain or fragment)
chain: MEGASQGGLQTVMKWKTVVAIFVVVVVYLVTGGLVFRALEQPFESSQKNTIALEKAEFLRDHVCVSPQELETLIQHALDADNAGVSPIGNSSNNSSHWDLGSAFFFAGTVITTIGYGNIAPSTEGGKIFCILYAIFGIPLFGFLLAGIGDQLGTIFGKSIARVEKVFRKKQVSQTKIRVISTILFILAGCIVFVTIPAVIFKYIEGWTALESIYFVVVTLTTVGFGDFVAGGNAGINYREWYKPLVWFWILVGLAYFAAVLSMIGDWLRVLSKKTKEEVGE
modifications: glycans, treated with EndoH to reduce the glycan heterogeneity
B1: binds [3].

B2: TRAAK (K2p4.1b), residues 1-290 with N104Q and N108Q (domain or fragment)
chain: MTTAPQEPPARPLQAGSGAGPAPGRAMRSTTLLALLALVLLYLVSGALVFRALEQPHEQQAQRELGEVREKFLRAHPCVSDQELGLLIKEVADALGGGADPETQSTSQSSHSAWDLGSAFFFSGTIITTIGYGNVALRTDAGRLFCIFYALVGIPLFGILLAGVGDRLGSSLRHGIGHIEAIFLKWHVPPELVRVLSAMLFLLIGCLLFVLTPTFVFCYMEDWSKLEAIYFVIVTLTTVGFGDYVAGADPRQDSPAYQPLVWFWILLGLAYFASVLTTIGNWLRVVSRRT
With B2 the “stoichiometry N” value [4] was 2.
